The FLAb antibody collection (doi:10.7554/elife.23156)

B1: scFv; the commonest letter at each place (parent)
chain 1: EVKLDETGGGLVQPGRPMKLSCVASGFTFSDYWMNWVRQSPEKGLEWVAQIRNKPYNYETYYSDSVKGRFTISRDDSKSSVYLQMNNLRVEDMGIYYCTGSYYGMDYWGQGTSVTVS
chain 2: DVVMTQTPLSLPVSLGDQASISCRSSQSLVHSNGNTYLRWYLQKPGQSPKVLIYKVSNRFSGVPDRFSGSGSGTDFTLKISRVEAEDLGVYFCSQSTHVPWTFGGGTKLEIK

Experiments:
fluorescein = variants of: B1; assay: Kd (Tite-Seq); details: with fluorescein; format: scFv 4-4-20, heavy + light
[1] = variants of: B1; assay: yeast surface expression (ratio to wild type); higher = more expressed; details: format: scFv 4-4-20, heavy + light

Row | Kd (fluorescein) [µM] | Variant | yeast surface expression [1]
1 | ≥ 10 | chain 1 EVKLDETGGGLVQPGRPMKLSCVASGFTFSDYWMNWVRQSPEKGLEWVAQIRNKPYNYETYYSDSVKGRFTISRDDSKSSVYLQMNNLRVEDMGIYYCTGSYHGMHYWGQGTSVTVS chain 2 DVVMTQTPLSLPVSLGDQASISCRSSQSLVHSNGNTYLRWYLQKPGQSPKVLIYKVSNRFSGVPDRFSGSGSGTDFTLKISRVEAEDLGVYFCSQSTHVPWTFGGGTKLEIK [chain 1 Y103H D106H] | 0.611
2 | ≥ 10 | chain 1 EVKLDETGGGLVQPGRPMKLSCVASGFTFSDYWMNWVRQSPEKGLEWVAQIRNKPYNYETYYSDSVKGRFTISRDDSKSSVYLQMNNLRVEDMGIYYCTGSYPGMDYWSQGTSVTVS chain 2 DVVMTQTPLSLPVSLGDQASISCRSSQSLVHSNGNTYLRWYLQKPGQSPKVLIYKVSNRFSGVPDRFSGSGSGTDFTLKISRVEAEDLGVYFCSQSTHVPWTFGGGTKLEIK [chain 1 Y103P G109S] | 0.828
3 | ≥ 10 | chain 1 EVKLDETGGGLVQPGRPMKLSCVASGFTFSDYWMNWVRQSPEKGLEWVAQIRNKPYNYETYYSDSVKGRFTISRDDSKSSVYLQMNNLRVEDMGIYYCTGSYYGHDYWTQGTSVTVS chain 2 DVVMTQTPLSLPVSLGDQASISCRSSQSLVHSNGNTYLRWYLQKPGQSPKVLIYKVSNRFSGVPDRFSGSGSGTDFTLKISRVEAEDLGVYFCSQSTHVPWTFGGGTKLEIK [chain 1 M105H G109T] | 0.442
4 | ≥ 10 | chain 1 EVKLDETGGGLVQPGRPMKLSCVASGFTFSDYWMNWVRQSPEKGLEWVAQIRNKPYNYETYYSDSVKGRFTISRDDSKSSVYLQMNNLRVEDMGIYYCTGSYYGMDYSNQGTSVTVS chain 2 DVVMTQTPLSLPVSLGDQASISCRSSQSLVHSNGNTYLRWYLQKPGQSPKVLIYKVSNRFSGVPDRFSGSGSGTDFTLKISRVEAEDLGVYFCSQSTHVPWTFGGGTKLEIK [chain 1 W108S G109N] | 0.413
5 | ≥ 10 | chain 1 EVKLDETGGGLVQPGRPMKLSCVASGFTFSDYWMNWVRQSPEKGLEWVAQIRNKPYNYETYYSDSVKGRFTISRDDSKSSVYLQMNNLRVEDMGIYYCTGSVYGHDYWVQGTSVTVS chain 2 DVVMTQTPLSLPVSLGDQASISCRSSQSLVHSNGNTYLRWYLQKPGQSPKVLIYKVSNRFSGVPDRFSGSGSGTDFTLKISRVEAEDLGVYFCSQSTHVPWTFGGGTKLEIK [chain 1 Y102V M105H G109V] | 0.276
6 | ≥ 10 | chain 1 EVKLDETGGGLVQPGRPMKLSCVASGFTFSDYWMTWPRQSPEKGLEWVAQIRNKPYNYETYYSDSVKGRFTISRDDSKSSVYLQMNNLRVEDMGIYYCTGSYYGMDYWGQGTSVTVS chain 2 DVVMTQTPLSLPVSLGDQASISCRSSQSLVHSNGNTYLRWYLQKPGQSPKVLIYKVSNRFSGVPDRFSGSGSGTDFTLKISRVEAEDLGVYFCSQSTHVPWTFGGGTKLEIK [chain 1 N35T V37P] | 0.726

Further lines, the variant ahead of its results:

Row | Variant | Kd (fluorescein) [µM] | yeast surface expression [1]
7 | chain 1 EVKLDETGGGLVQPGRPMKLSCVASGFTFSDYWMNWVRQSPEKGLEWVAQIRNKPYNYETYYSDSVKGRFTISRDDSKSSVYLQMNNLRVEDMGIYYCTQSYYGMDLWEQGTSVTVS chain 2 DVVMTQTPLSLPVSLGDQASISCRSSQSLVHSNGNTYLRWYLQKPGQSPKVLIYKVSNRFSGVPDRFSGSGSGTDFTLKISRVEAEDLGVYFCSQSTHVPWTFGGGTKLEIK [chain 1 G100Q Y107L G109E] | ≥ 10 | 0.226
8 | chain 1 EVKLDETGGGLVQPGRPMKLSCVASGFTPSAYWANWVRQSPEKGLEWVAQIRNKPYNYETYYSDSVKGRFTISRDDSKSSVYLQMNNLRVEDMGIYYCTGSYYGMDYWGQGTSVTVS chain 2 DVVMTQTPLSLPVSLGDQASISCRSSQSLVHSNGNTYLRWYLQKPGQSPKVLIYKVSNRFSGVPDRFSGSGSGTDFTLKISRVEAEDLGVYFCSQSTHVPWTFGGGTKLEIK [chain 1 F29P D31A M34A] | ≥ 10 | 0.567
9 | chain 1 EVKLDETGGGLVQPGRPMKLSCVASGFTYSDAWMNWVRQSPEKGLEWVAQIRNKPYNYETYYSDSVKGRFTISRDDSKSSVYLQMNNLRVEDMGIYYCTGSYYGMDYWGQGTSVTVS chain 2 DVVMTQTPLSLPVSLGDQASISCRSSQSLVHSNGNTYLRWYLQKPGQSPKVLIYKVSNRFSGVPDRFSGSGSGTDFTLKISRVEAEDLGVYFCSQSTHVPWTFGGGTKLEIK [chain 1 F29Y Y32A] | 0.00708 | 1.02
10 | chain 1 EVKLDETGGGLVQPGRPMKLSCVASGFTFSDYWMNWVRQSPEKGLEWVAQIRNKPYNYETYYSDSVKGRFTISRDDSKSSVYLQMNNLRVEDMGIYYCTISYYGMDPIGQGTSVTVS chain 2 DVVMTQTPLSLPVSLGDQASISCRSSQSLVHSNGNTYLRWYLQKPGQSPKVLIYKVSNRFSGVPDRFSGSGSGTDFTLKISRVEAEDLGVYFCSQSTHVPWTFGGGTKLEIK [chain 1 G100I Y107P W108I] | ≥ 10 | 0.471
11 | chain 1 EVKLDETGGGLVQPGRPMKLSCVASGFTVSDYWMNWVRQSPEKGLEWVAQIRNKPYNYETYYSDSVKGRFTISRDDSKSSVYLQMNNLRVEDMGIYYCTGSYYGMDYWGQGTSVTVS chain 2 DVVMTQTPLSLPVSLGDQASISCRSSQSLVHSNGNTYLRWYLQKPGQSPKVLIYKVSNRFSGVPDRFSGSGSGTDFTLKISRVEAEDLGVYFCSQSTHVPWTFGGGTKLEIK [chain 1 F29V] | 0.00967 | 0.929
12 | chain 1 EVKLDETGGGLVQPGRPMKLSCVASGFTFSDYWMNWVRQSPEKGLEWVAQIRNKPYNYETYYSDSVKGRFTISRDDSKSSVYLQMNNLRVEDMGIYYCTPSYYGMDYWGQGTSVTVS chain 2 DVVMTQTPLSLPVSLGDQASISCRSSQSLVHSNGNTYLRWYLQKPGQSPKVLIYKVSNRFSGVPDRFSGSGSGTDFTLKISRVEAEDLGVYFCSQSTHVPWTFGGGTKLEIK [chain 1 G100P] | ≥ 10 | 0.758
